By IC50 is commonly meant the midpoint of a concentration-inhibition curve.

The results in this text go back to patent publication US20140087995A1 (published 2014).

Numbered stars: 1 amine (or outer) side, 2 acyl side, 3 side chain; on linkers, the order of the positions; unused ones are H or OH. Bridge positions count the residues as written; N and C are the ends. Side chains are listed from the residue outwards. Ends that are not written are not given here. * marks the point of attachment. C20 diacid = O=C(O)CCCCCCCCCCCCCCCCCCC(=O)*; γGlu = O=C(O)[C@H](CCC(=O)[*:2])N[*:1]; C14 diacid = O=C(O)CCCCCCCCCCCCC(=O)*; AEEA = NCCOCCOCC(=O)O

Sequences and labels used below:
B1: N^ε1-[2-[2-[2-[[2-[2-[2-[[(4S)-4-carboxy-4-(19-carboxynonadecanoylamino)butanoyl]amino]ethoxy]ethoxy]acetyl]amino]ethoxy]ethoxy]acetyl]-[Arg17,Pro21,Pro27,Pro31 … (peptide)
peptide: K([AEEA-AEEA-γGlu-C20 diacid])CNTATCATQRLANFLRHSSPNFGAIPSSTPVGSNTY-NH2
modifications: disulfide 2-7; N-terminus assumed
SMILES: CC[C@H](C)[C@H](NC(=O)[C@H](C)NC(=O)CNC(=O)[C@H](Cc1ccccc1)NC(=O)[C@H](CC(N)=O)NC(=O)[C@@H]1CCCN1C(=O)[C@H](CO)NC(=O)[C@H](CO)NC(=O)[C@H](Cc1c[nH]cn1)NC(=O)[C@H](CCCNC(=N)N)NC(=O)[C@H](CC(C)C)NC(=O)[C@H](Cc1ccccc1)NC(=O)[C@H](CC(N)=O)NC(=O)[C@H](C)NC(=O)[C@H](CC(C)C)NC(=O)[C@H](CCCNC(=N)N)NC(=O)[C@H](CCC(N)=O)NC(=O)[C@@H](NC(=O)[C@H](C)NC(=O)[C@@H]1CSSC[C@H](NC(=O)[C@@H](N)CCCCNC(=O)COCCOCCNC(=O)COCCOCCNC(=O)CC[C@H](NC(=O)CCCCCCCCCCCCCCCCCCC(=O)O)C(=O)O)C(=O)N[C@@H](CC(N)=O)C(=O)N[C@@H]([C@@H](C)O)C(=O)N[C@@H](C)C(=O)N[C@@H]([C@@H](C)O)C(=O)N1)[C@@H](C)O)C(=O)N1CCC[C@H]1C(=O)N[C@@H](CO)C(=O)N[C@@H](CO)C(=O)N[C@H](C(=O)N1CCC[C@H]1C(=O)N[C@H](C(=O)NCC(=O)N[C@@H](CO)C(=O)N[C@@H](CC(N)=O)C(=O)N[C@H](C(=O)N[C@@H](Cc1ccc(O)cc1)C(N)=O)[C@@H](C)O)C(C)C)[C@@H](C)O
notes: also called compound 96
B2: N^ε1-[(4S)-4-carboxy-4-(13-carboxytridecanoylamino)butanoyl]-[Arg17,Pro21,Pro27,His34]-h-amylin (peptide)
peptide: K([γGlu-C14 diacid])CNTATCATQRLANFLRHSSPNFGAIPSSTNVGHNTY-NH2
modifications: disulfide 2-7; N-terminus assumed
SMILES: CC[C@H](C)[C@H](NC(=O)[C@H](C)NC(=O)CNC(=O)[C@H](Cc1ccccc1)NC(=O)[C@H](CC(N)=O)NC(=O)[C@@H]1CCCN1C(=O)[C@H](CO)NC(=O)[C@H](CO)NC(=O)[C@H](Cc1c[nH]cn1)NC(=O)[C@H](CCCNC(=N)N)NC(=O)[C@H](CC(C)C)NC(=O)[C@H](Cc1ccccc1)NC(=O)[C@H](CC(N)=O)NC(=O)[C@H](C)NC(=O)[C@H](CC(C)C)NC(=O)[C@H](CCCNC(=N)N)NC(=O)[C@H](CCC(N)=O)NC(=O)[C@@H](NC(=O)[C@H](C)NC(=O)[C@@H]1CSSC[C@H](NC(=O)[C@@H](N)CCCCNC(=O)CC[C@H](NC(=O)CCCCCCCCCCCCC(=O)O)C(=O)O)C(=O)N[C@@H](CC(N)=O)C(=O)N[C@@H]([C@@H](C)O)C(=O)N[C@@H](C)C(=O)N[C@@H]([C@@H](C)O)C(=O)N1)[C@@H](C)O)C(=O)N1CCC[C@H]1C(=O)N[C@@H](CO)C(=O)N[C@@H](CO)C(=O)N[C@H](C(=O)N[C@@H](CC(N)=O)C(=O)N[C@H](C(=O)NCC(=O)N[C@@H](Cc1c[nH]cn1)C(=O)N[C@@H](CC(N)=O)C(=O)N[C@H](C(=O)N[C@@H](Cc1ccc(O)cc1)C(N)=O)[C@@H](C)O)C(C)C)[C@@H](C)O
B3: N^ε1-[2-[2-[2-[[(4S)-4-carboxy-4-(19-carboxynonadecanoylamino)butanoyl]amino]ethoxy]ethoxy]acetyl]-[His14,Arg17,Pro21,Pro27,Arg34]-h-amylin (peptide)
peptide: K([AEEA-γGlu-C20 diacid])CNTATCATQRLAHFLRHSSPNFGAIPSSTNVGRNTY-NH2
modifications: disulfide 2-7; N-terminus assumed
SMILES: CC[C@H](C)[C@H](NC(=O)[C@H](C)NC(=O)CNC(=O)[C@H](Cc1ccccc1)NC(=O)[C@H](CC(N)=O)NC(=O)[C@@H]1CCCN1C(=O)[C@H](CO)NC(=O)[C@H](CO)NC(=O)[C@H](Cc1c[nH]cn1)NC(=O)[C@H](CCCNC(=N)N)NC(=O)[C@H](CC(C)C)NC(=O)[C@H](Cc1ccccc1)NC(=O)[C@H](Cc1c[nH]cn1)NC(=O)[C@H](C)NC(=O)[C@H](CC(C)C)NC(=O)[C@H](CCCNC(=N)N)NC(=O)[C@H](CCC(N)=O)NC(=O)[C@@H](NC(=O)[C@H](C)NC(=O)[C@@H]1CSSC[C@H](NC(=O)[C@@H](N)CCCCNC(=O)COCCOCCNC(=O)CC[C@H](NC(=O)CCCCCCCCCCCCCCCCCCC(=O)O)C(=O)O)C(=O)N[C@@H](CC(N)=O)C(=O)N[C@@H]([C@@H](C)O)C(=O)N[C@@H](C)C(=O)N[C@@H]([C@@H](C)O)C(=O)N1)[C@@H](C)O)C(=O)N1CCC[C@H]1C(=O)N[C@@H](CO)C(=O)N[C@@H](CO)C(=O)N[C@H](C(=O)N[C@@H](CC(N)=O)C(=O)N[C@H](C(=O)NCC(=O)N[C@@H](CCCNC(=N)N)C(=O)N[C@@H](CC(N)=O)C(=O)N[C@H](C(=O)N[C@@H](Cc1ccc(O)cc1)C(N)=O)[C@@H](C)O)C(C)C)[C@@H](C)O
notes: also called compound 84
B4: N^ε1-[2-[2-[2-[[2-[2-[2-[[(4S)-4-carboxy-4-(19-carboxynonadecanoylamino)butanoyl]amino]ethoxy]ethoxy]acetyl]amino]ethoxy]ethoxy]acetyl]-[Arg17,Pro21,Pro27,Pro34 … (peptide)
peptide: K([AEEA-AEEA-γGlu-C20 diacid])CNTATCATQRLANFLRHSSPNFGAIPSSTNVGPNTY-NH2
modifications: disulfide 2-7; N-terminus assumed
SMILES: CC[C@H](C)[C@H](NC(=O)[C@H](C)NC(=O)CNC(=O)[C@H](Cc1ccccc1)NC(=O)[C@H](CC(N)=O)NC(=O)[C@@H]1CCCN1C(=O)[C@H](CO)NC(=O)[C@H](CO)NC(=O)[C@H](Cc1c[nH]cn1)NC(=O)[C@H](CCCNC(=N)N)NC(=O)[C@H](CC(C)C)NC(=O)[C@H](Cc1ccccc1)NC(=O)[C@H](CC(N)=O)NC(=O)[C@H](C)NC(=O)[C@H](CC(C)C)NC(=O)[C@H](CCCNC(=N)N)NC(=O)[C@H](CCC(N)=O)NC(=O)[C@@H](NC(=O)[C@H](C)NC(=O)[C@@H]1CSSC[C@H](NC(=O)[C@@H](N)CCCCNC(=O)COCCOCCNC(=O)COCCOCCNC(=O)CC[C@H](NC(=O)CCCCCCCCCCCCCCCCCCC(=O)O)C(=O)O)C(=O)N[C@@H](CC(N)=O)C(=O)N[C@@H]([C@@H](C)O)C(=O)N[C@@H](C)C(=O)N[C@@H]([C@@H](C)O)C(=O)N1)[C@@H](C)O)C(=O)N1CCC[C@H]1C(=O)N[C@@H](CO)C(=O)N[C@@H](CO)C(=O)N[C@H](C(=O)N[C@@H](CC(N)=O)C(=O)N[C@H](C(=O)NCC(=O)N1CCC[C@H]1C(=O)N[C@@H](CC(N)=O)C(=O)N[C@H](C(=O)N[C@@H](Cc1ccc(O)cc1)C(N)=O)[C@@H](C)O)C(C)C)[C@@H](C)O
notes: also called compound 98

In one experiment the target is T1, rat amylin receptor (rat calcitonin receptor + rat RAMP 3) (rat, UniProt P32214 25-516; Q9JJ73 23-147).
T1 construct: whole, on cells; Membranes of transiently transfected BHK tk'ts 13 cells (Assay VI); also called rAmylin-R; rat amylin 3(a) receptor
T1 sequence (looked up) 1: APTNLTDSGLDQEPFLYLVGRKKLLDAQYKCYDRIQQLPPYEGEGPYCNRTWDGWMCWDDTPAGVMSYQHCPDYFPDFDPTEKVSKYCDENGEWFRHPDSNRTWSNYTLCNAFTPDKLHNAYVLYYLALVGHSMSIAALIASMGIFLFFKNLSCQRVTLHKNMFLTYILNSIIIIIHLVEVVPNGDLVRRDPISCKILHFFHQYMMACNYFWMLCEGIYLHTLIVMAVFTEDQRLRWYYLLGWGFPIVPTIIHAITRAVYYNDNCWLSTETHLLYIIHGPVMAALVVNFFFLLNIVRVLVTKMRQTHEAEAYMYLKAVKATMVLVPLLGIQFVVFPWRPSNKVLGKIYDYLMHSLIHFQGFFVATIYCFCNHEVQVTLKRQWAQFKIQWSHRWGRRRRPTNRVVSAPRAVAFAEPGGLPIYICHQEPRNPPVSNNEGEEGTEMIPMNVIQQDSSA
T1 sequence (looked up) 2: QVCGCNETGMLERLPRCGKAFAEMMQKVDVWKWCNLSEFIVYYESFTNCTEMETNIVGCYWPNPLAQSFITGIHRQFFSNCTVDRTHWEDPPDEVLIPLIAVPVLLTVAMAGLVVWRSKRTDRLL
In words: SPA competition with 125I-rat amylin, membranes of BHK cells with rat calcitonin receptor + rat RAMP3 (Assay VI).
Regarding B1, the IC50 turned out to be 0.529 nM.
Still for that read-out and setting: the value for B2 was 2.52 nM; that for B3 was 5.05 nM.
As to B4, the concentration for half-maximal inhibition (IC50) came to 0.137 nM.

The next experiment addresses T2, rat calcitonin receptor (rat, UniProt P32214 25-516).
T2 construct: whole, on cells; Membranes of transiently transfected BHK tk'ts 13 cells (Assay VIII); also called rCTR
T2 sequence (looked up): T1 sequence (looked up) 1
In words: ratio IC50 rat calcitonin receptor / IC50 rat amylin receptor (reference).
As to B1, the “Ratio rCT/rAmylin binding” value was determined as 118.
For the molecule B2, the “Ratio rCT/rAmylin binding” value amounted to 280.
Still for that read-out and setting: the value for B3 was 94.3; that for B4 was 176.

Another experiment addresses T2, rat calcitonin receptor. As to the kind of experiment: SPA competition with 125I-calcitonin, membranes of BHK cells with rat calcitonin receptor (Assay VIII).
Turning to B1, the IC50 was 62.2 nM.
As to B2, the IC50 stood at 707 nM.
On to B3, for which the concentration for half-maximal inhibition (IC50) stood at 477 nM.
Take B4: the IC50 is 24.1 nM.

Another experiment has as its target T3, human calcitonin receptor (human, UniProt P30988 25-474).
T3 construct: whole, on cells; Membranes of a stably transfected BHK cell line (Assay VII); also called hCTR; hCT
T3 sequence (looked up): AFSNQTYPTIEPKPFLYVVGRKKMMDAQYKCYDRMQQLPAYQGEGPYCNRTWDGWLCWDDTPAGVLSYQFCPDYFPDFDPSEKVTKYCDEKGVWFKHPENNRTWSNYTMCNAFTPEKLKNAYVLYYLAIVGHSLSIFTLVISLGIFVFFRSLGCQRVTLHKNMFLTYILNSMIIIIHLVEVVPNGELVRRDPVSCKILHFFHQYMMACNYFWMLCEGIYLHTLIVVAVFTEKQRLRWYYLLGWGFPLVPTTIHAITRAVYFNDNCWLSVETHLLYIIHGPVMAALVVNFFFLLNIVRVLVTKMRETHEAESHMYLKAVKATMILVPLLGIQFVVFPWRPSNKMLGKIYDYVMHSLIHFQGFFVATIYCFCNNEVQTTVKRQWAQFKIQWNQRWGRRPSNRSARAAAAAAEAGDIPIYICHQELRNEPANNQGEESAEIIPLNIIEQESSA
In words: ratio IC50 human calcitonin receptor / IC50 human amylin receptor (reference). As for the experimental part: The resulting pellet was resuspended, homogenized and centrifuged (20.000 rpm, 15 min) in a buffer containing 20 mM Na-HEPES and 0.1 mM EDTA (pH 7.4, buffer 2). The resulting pellet was resuspended in buffer 2 and protein concentration was measured (BCA protein Assay, Pierce). The homogenate was kept cold during the whole procedure. The membranes were kept at −80° C. until use. The assay was performed in a 384 well Optiplate (PerkinElmer) in a total volume of 40 ul. Membranes were mixed with SPA beads. Final concentration of membranes 35 ng/μL final and SPA beads was 0.05 mg/well. Test-compounds were dissolved in DMSO and further diluted in assay buffer (50 mM Hepes, pH 7.4, 1 mM CaCl2, 5 mM MgCl₂, 0.1% OA and 0.02% Tween20). […] The final mixture was incubated with shaking at 400 rpm for 120 min at 25° C. prior to centrifugation (1500 rpm, 10 min). Samples were analyzed on TopCounter™ (Packard). The IC₅₀ was calculated using (one site binding competition analysis) GraphPad Prism5 as a measure of receptor affinity.
Membranes were prepared in the following way; the cells were rinsed with PBS and incubated with Versene for approximately 5 min before harvesting. The cells were flushed with PBS and the cell-suspension was centrifuged for 5 min at 1000 rpm. Cells were homogenized (Ultrathurrax) in a buffer containing 20 mM Na-HEPES and 10 mM EDTA (pH 7.4) and centrifuged at 20.000 rpm for 15 min. The resulting pellet was resuspended, homogenized and centrifuged (20.000 rpm, 15 min) in a buffer containing 20 mM Na-HEPES and 0.1 mM EDTA (pH 7.4, buffer 2). The resulting pellet was resuspended in buffer 2 and protein concentration was measured (BCA protein Assay, Pierce). The homogenate was kept cold during the whole procedure. The membranes were kept at −80° C. until use. Assay was performed in a 384 well Optiplate (PerkinElmer) in a total volume of 40 ul. Membranes were mixed with SPA beads.
Take B1: the “Ratio hCT/hAmylin binding” value stood at 79.6.
The same measure, in the same setting: the value for B2 was 23.5; that for B3 was 120; that for B4 was 74.1.
